IntAct's records for PubMed 17292836

B1: 26S proteasome non-ATPase regulatory subunit 10 (Mus musculus), Q9Z2X2 (parent)
chain: MEGCVSNIMICNLAYSGKLDELKERILADKSLATRTDQDSRTALHWACSAGHTEIVEFLLQLGVPVNDKDDAGWSPLHIAASAGRDEIVKALLVKGAHVNAVNQNGCTPLHYAASKNRHEIAVMLLEGGANPDAKDHYDATAMHRAAAKGNLKMVHILLFYKASTNIQDTEGNTPLHLACDEERVEEAKFLVTQGASIYIENKEEKTPLQVAKGGLGLILKRLAESEEASM
partner: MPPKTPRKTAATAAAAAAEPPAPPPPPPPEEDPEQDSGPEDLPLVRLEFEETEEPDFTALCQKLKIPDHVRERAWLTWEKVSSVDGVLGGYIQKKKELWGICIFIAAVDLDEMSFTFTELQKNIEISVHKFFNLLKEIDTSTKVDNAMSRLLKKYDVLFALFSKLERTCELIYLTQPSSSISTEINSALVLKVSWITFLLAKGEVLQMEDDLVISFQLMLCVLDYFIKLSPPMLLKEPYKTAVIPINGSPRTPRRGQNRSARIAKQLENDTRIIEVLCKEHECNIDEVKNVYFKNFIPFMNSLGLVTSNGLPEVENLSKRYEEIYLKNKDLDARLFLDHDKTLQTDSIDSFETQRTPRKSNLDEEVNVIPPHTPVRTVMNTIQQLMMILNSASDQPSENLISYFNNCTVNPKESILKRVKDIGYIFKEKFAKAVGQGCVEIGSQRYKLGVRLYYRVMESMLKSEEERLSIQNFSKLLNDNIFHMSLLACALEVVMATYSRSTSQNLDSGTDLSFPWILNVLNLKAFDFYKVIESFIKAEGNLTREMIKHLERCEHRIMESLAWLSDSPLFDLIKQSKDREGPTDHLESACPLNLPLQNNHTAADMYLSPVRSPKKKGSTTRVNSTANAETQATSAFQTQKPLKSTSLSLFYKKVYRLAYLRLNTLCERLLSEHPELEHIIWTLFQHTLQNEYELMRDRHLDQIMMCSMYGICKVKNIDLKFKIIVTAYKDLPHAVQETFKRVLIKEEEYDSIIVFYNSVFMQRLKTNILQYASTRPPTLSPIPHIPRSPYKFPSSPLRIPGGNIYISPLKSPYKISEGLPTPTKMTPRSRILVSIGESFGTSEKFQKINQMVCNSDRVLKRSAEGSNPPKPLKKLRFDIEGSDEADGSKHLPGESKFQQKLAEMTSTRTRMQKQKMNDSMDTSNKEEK

Variants of: B1
Settings: with rb_human RB1, P06400

effect of a mutation on the interaction | Variant
disrupting interaction | E182A
